From the supplement of paper PMC5998384

What was measured:
HeLa Kyoto [1] = experiment: solubility in G1/S (NP-40 vs SDS abundance) (log2 ratio); higher = more soluble; details: cell cycle stage: G1/S
HeLa Kyoto [2] = experiment: thermal stability score vs G1/S (z-score of summed log2 fold changes over temperatures); higher = more thermally stable than in G1/S
HeLa Kyoto [3] = experiment: melting temperature (median over replicates), in situ; higher = more thermally stable
HeLa Kyoto [4] = experiment: solubility change mitosis vs G1/S (difference of NP-40 vs SDS log2 ratios) (log2 ratio difference); higher = more soluble in mitosis
[5] = cell cycle stage: early G1 (4.5 h after nocodazole release)
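For melting temperature (median over replicates), in situ in this document: HeLa Kyoto cells synchronized by double thymidine or nocodazole block, proteins quantified by TMT10plex mass spectrometry, three independent biological replicates.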
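For solubility change mitosis vs G1/S (difference of NP-40 vs SDS log2 ratios) in this document: synchronized HeLa Kyoto cells (double thymidine block for G1/S, nocodazole release for mitosis), protein amounts in NP-40 versus SDS lysates quantified by mass spectrometry, three biological replicates.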
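For solubility in G1/S (NP-40 vs SDS abundance) in this document: HeLa Kyoto cells arrested at G1/S by double thymidine block, proteins quantified by TMT10plex mass spectrometry in mild NP-40 versus SDS extracts, three biological replicates.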
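For thermal stability score vs G1/S (z-score of summed log2 fold changes over temperatures) in this document: synchronized HeLa Kyoto cells, proteins quantified by TMT10plex mass spectrometry, three biological replicates, mitosis taken 0.5 h after nocodazole release, G1/S directly after double thymidine block.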

Sequence	solubility in G1/S (log2) (HeLa Kyoto [1])	thermal stability score (HeLa Kyoto [2]; [5])	thermal stability score (HeLa Kyoto [2]; cell cycle stage: mitosis)	melting temperature (HeLa Kyoto [3]; cell cycle stage: G1/S) [°C]	melting temperature (HeLa Kyoto [3]; cell cycle stage: mitosis) [°C]	solubility change mitosis (log2) (HeLa Kyoto [4])
MESRKLISATDIQYSGSLLNSLNEQRGHGLFCDVTVIVEDRKFRAHKNILSASSTYFHQLFSVAGQVVELSFIRAEIFAEILNYIYSSKIVRVRSDLLDELIKSGQLLGVKFIAELGVPLSQVKSISGTAQDGNTEPLPPDSGDKNLVIQKSKDEAQDNGATIMPIITESFSLSAEDYEMKKIIVTDSDDDDDDVIFCSEILPTKETLPSNNTVAQVQSNPGPVAISDVAPSASNNSPPLTNITPTQKLPTPVNQATLSQTQGSEKLLVSSAPTHLTPNIILLNQTPLSTPPNVSSSLPNHMPSSINLLVQNQQTPNSAILTGNKANEEEEEEIIDDDDDTISSSPDSAVSNTSLVPQADTSQNTSFDGSLIQKMQIPTLLQEPLSNSLKISDIITRNTNDPGVGSKHLMEGQKIITLDTATEIEGLSTGCKVYANIGEDTYDIVIPVKDDPDEGEARLENEIPKTSGSEMANKRMKVKHDDHYELIVDGRVYYICIVCKRSYVCLTSLRRHFNIHSWEKKYPCRYCEKVFPLAEYRTKHEIHHTGERRYQCLACGKSFINYQFMSSHIKSVHSQDPSGDSKLYRLHPCRSLQIRQYAYLSDRSSTIPAMKDDGIGYKVDTGKEPPVGTTTSTQNKPMTWEDIFIQQENDSIFKQNVTDGSTEFEFIIPESY [ZBTB33]	-0.035	1.76	3.1	46.4	51.6	-0.162
MDSTLTASEIRQRFIDFFKRNEHTYVHSSATIPLDDPTLLFANAGMNQFKPIFLNTIDPSHPMAKLSRAANTQKCIRAGGKHNDLDDVGKDVYHHTFFEMLGSWSFGDYFKELACKMALELLTQEFGIPIERLYVTYFGGDEAAGLEADLECKQIWQNLGLDDTKILPGNMKDNFWEMGDTGPCGPCSEIHYDRIGGRDAAHLVNQDDPNVLEIWNLVFIQYNREADGILKPLPKKSIDTGMGLERLVSVLQNKMSNYDTDLFVPYFEAIQKGTGARPYTGKVGAEDADGIDMAYRVLADHARTITVALADGGRPDNTGRGYVLRRILRRAVRYAHEKLNASRGFFATLVDVVVQSLGDAFPELKKDPDMVKDIINEEEVQFLKTLSRGRRILDRKIQSLGDSKTIPGDTAWLLYDTYGFPVDLTGLIAEEKGLVVDMDGFEEERKLAQLKSQGKGAGGEDLIMLDIYAIEELRARGLEVTDDSPKYNYHLDSSGSYVFENTVATVMALRREKMFVEEVSTGQECGVVLDKTCFYAEQGGQIYDEGYLVKVDDSSEDKTEFTVKNAQVRGGYVLHIGTIYGDLKVGDQVWLFIDEPRRRPIMSNHTATHILNFALRSVLGEADQKGSLVAPDRLRFDFTAKGAMSTQQIKKAEEIANEMIEAAKAVYTQDCPLAAAKAIQGLRAVFDETYPDPVRVVSIGVPVSELLDDPSGPAGSLTSVEFCGGTHLRNSSHAGAFVIVTEEAIAKGIRRIVAVTGAEAQKALRKAESLKKCLSVMEAKVKAQTAPNKDVQREIADLGEALATAVIPQWQKDELRETLKSLKKVMDDLDRASKADVQKRVLEKTKQFIDSNPNQPLVILEMESGASAKALNEALKLFKMHSPQTSAMLFTVDNEAGKITCLCQVPQNAANRGLKASEWVQQVSGLMDGKGGGKDVSAQATGKNVGCLQEALQLATSFAQLRLGDVKN [AARS]	0.201	2.25	2.81	51.6	52.1	-0.1
MDLFGDLPEPERSPRPAAGKEAQKGPLLFDDLPPASSTDSGSGGPLLFDDLPPASSGDSGSLATSISQMVKTEGKGAKRKTSEEEKNGSEELVEKKVCKASSVIFGLKGYVAERKGEREEMQDAHVILNDITEECRPPSSLITRVSYFAVFDGHGGIRASKFAAQNLHQNLIRKFPKGDVISVEKTVKRCLLDTFKHTDEEFLKQASSQKPAWKDGSTATCVLAVDNILYIANLGDSRAILCRYNEESQKHAALSLSKEHNPTQYEERMRIQKAGGNVRDGRVLGVLEVSRSIGDGQYKRCGVTSVPDIRRCQLTPNDRFILLACDGLFKVFTPEEAVNFILSCLEDEKIQTREGKSAADARYEAACNRLANKAVQRGSADNVTVMVVRIGH [ILKAP]	0.239	0.735	1.5	49.3	49.8	-0.0534
MATDTSQGELVHPKALPLIVGAQLIHADKLGEKVEDSTMPIRRTVNSTRETPPKSKLAEGEEEKPEPDISSEESVSTVEEQENETPPATSSEAEQPKGEPENEEKEENKSSEETKKDEKDQSKEKEKKVKKTIPSWATLSASQLARAQKQTPMASSPRPKMDAILTEAIKACFQKSGASVVAIRKYIIHKYPSLELERRGYLLKQALKRELNRGVIKQVKGKGASGSFVVVQKSRKTPQKSRNRKNRSSAVDPEPQVKLEDVLPLAFTRLCEPKEASYSLIRKYVSQYYPKLRVDIRPQLLKNALQRAVERGQLEQITGKGASGTFQLKKSGEKPLLGGSLMEYAILSAIAAMNEPKTCSTTALKKYVLENHPGTNSNYQMHLLKKTLQKCEKNGWMEQISGKGFSGTFQLCFPYYPSPGVLFPKKEPDDSRDEDEDEDESSEEDSEDEEPPPKRRLQKKTPAKSPGKAASVKQRGSKPAPKVSAAQRGKARPLPKKAPPKAKTPAKKTRPSSTVIKKPSGGSSKKPATSARKEVKLPGKGKSTMKKSFRVKK [HP1BP3]	-1.01	0.824	0.423	51.8	51.5	0.474
MALKVATVAGSAAKAVLGPALLCRPWEVLGAHEVPSRNIFSEQTIPPSAKYGGRHTVTMIPGDGIGPELMLHVKSVFRHACVPVDFEEVHVSSNADEEDIRNAIMAIRRNRVALKGNIETNHNLPPSHKSRNNILRTSLDLYANVIHCKSLPGVVTRHKDIDILIVRENTEGEYSSLEHESVAGVVESLKIITKAKSLRIAEYAFKLAQESGRKKVTAVHKANIMKLGDGLFLQCCREVAARYPQITFENMIVDNTTMQLVSRPQQFDVMVMPNLYGNIVNNVCAGLVGGPGLVAGANYGHVYAVFETATRNTGKSIANKNIANPTATLLASCMMLDHLKLHSYATSIRKAVLASMDNENMHTPDIGGQGTTSEAIQDVIRHIRVINGRAVEA [IDH3G]	0.253	-0.804	-0.821	54.5	54	-0.0967
